Experimental findings from the supplement of paper PMC11865577 are described below.

Assay in all cases: pull-down binding Z-score (relative to library population); higher = stronger binding
What all share (conditions): RNA library: Library-2

For series [1], the system named is TO-3-N3-2 (biotin conjugate). Summed up:
(§1)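 Binding is given as a Z-score against the library mean and standard deviation, calculated after removing the beads-only signal and averaging barcoded replicate probes without their highest and lowest values. Cy5- or Cy3-end-labelled RNA library (1 μg) was heat-folded in phosphate/NaCl/KCl buffer and incubated 60 min at 25 °C with streptavidin beads bearing 100 pmol of biotin-conjugated small molecule. After three washes, RNA eluted in hot SDS was hybridised to a DNA barcode microarray for 20 h at 55.5 °C.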

The test system of series [2] is TO-3-N3 (biotin conjugate). In a few lines: as §1
For series [3], the system named is TO-N3 (biotin conjugate). Summed up:
as §1

For series [4], the system named is TO-N3-2 (biotin conjugate). In a few lines:
as §1

Regarding UGCUUUCGUGGUA, the “pull-down binding Z-score” value in series [1] is -0.292; in series [2], 0.137; in series [3] it was 0.0358; in series [4], -0.505.
Take CUAGGUUUUUCUAUGUACUUGG: the “pull-down binding Z-score” value in series [1] is 0.313; in series [2], 1.15; in series [3], 0.825; in series [4] it was -0.376.
For “CCCAGUGCGGGG [IAV_invivo_NP_5_Motif_5+IAV_invivo_NP_5_Motif_5]”, in that order: -0.664, -0.794, -1.12 and -0.984.
On to “CUGUUCCACCAUUGAAGAGCUCAG [IAV_invivo_PB1_2_Motif_38+IAV_invivo_PB1_2_Motif_38]”, for which the “pull-down binding Z-score” value in series [1] was -0.178; in series [2] it was -0.372; in series [3], 0.134; in series [4] it was 0.457.
As for “UGAGUACUGUAGGCACGGCACUUGUGAAAGAUCAGAAGCUGGUGUUUGUGUAUCUACUAGUGGUAGAUGGGUACUUA [DMSMaPseq_invitro_SARS-CoV-2_Multi_29_ComplexLevel_1]”, the “pull-down binding Z-score” value in series [1] was -0.0976; in series [2], -0.254; in series [3] it was 0.0497; in series [4], 0.628.
As to “GGUACAACAACUUACAAAUUAAAUGUUGGUGAUUAUUUUGUGCU [SHAPE_invivo_SARS-CoV-2_Motif_319]”, the “pull-down binding Z-score” value in series [1] is -0.134; in series [2] it was -0.537; in series [3], -0.509; in series [4], -0.524.
As to “GAGGCUAUGUACACACCGCAUACAGUCUUACAGGCUGUUGGGGCUUGUGUUCUUUGCAAUUC [SHAPE_invitro_SARS-CoV-2_Motif_296]”, the “pull-down binding Z-score” value in series [1] was -0.158; in series [2] it was -0.256; in series [3], 0.112; in series [4], 0.485.
The like results for “UAGUACAUUUAUUAGUGAUGAAGUUGCGAGAGACUUGUCACUACAGUUUAAAAGACCAAUAAAUCCUACUG [SHAPE_invivo_SARS-CoV-2_Multi_21_ComplexLevel_1]” were, in that order, 0.312, 0.561, 0.716 and 0.172.
For the sequence “GGUUGGGAGAAGAGCAACAGCC [IAV_invivo_PB2_1_Motif_16+IAV_invivo_PB2_1_Motif_16]”, the “pull-down binding Z-score” value in series [1] stood at 0.479; in series [2], 0.351; in series [3], 0.776; in series [4], 1.09.
As to “UGACAUGACUCUUGAGGAAAUGUCA [IAV_invivo_NS1_NEP_8_Motif_7+IAV_invivo_NS1_NEP_8_Motif_7]”, the “pull-down binding Z-score” value in series [1] is -0.773; in series [2], -0.475; in series [3], -0.87; in series [4], -1.21.
Take “UUAAACACGCUUGUUAAACAACUUAGCUCCAAUUUUGGUGCAAUUUCAAGUGUUUUAA [SHAPE_invivo_SARS-CoV-2_Motif_457]”: the “pull-down binding Z-score” value in series [1] is -0.0371; in series [2], 0.47; in series [3], 0.301; in series [4], -0.627.
“GUCGCUACAGGAUUGGCAACUAUAAAUUAAACACAGACCAUUCCAGUAGCAGUGAC [SHAPE_invitro_SARS-CoV-2_Motif_494]”: the “pull-down binding Z-score” value in series [1] was 0.215; in series [2], 0.00722; in series [3], 0.0101; in series [4], -0.283.
For “AAGAAAGUUGAUGGUGUUGUCCAACAAUUACCUGAAACUUACUU [DMSMaPseq_invitro_SARS-CoV-2_Motif_358]”, in that order: -0.423, -1.04, -1.34 and -1.44.
For “AACAUUAACCUCCACACGCAAGUUGUGGACAUGUCAAUGACAUAUGGACAACAGUUUGGUCCAACUUAUUUGGAUGGAGCUGAUGUU”, the “pull-down binding Z-score” value in series [1] is -0.423; in series [2], -1; in series [3] it was -1.13; in series [4], -0.533.
Consider GGGAUUAUCCU, for which the “pull-down binding Z-score” value in series [1] is -0.465; in series [2] it was -0.811; in series [3] it was -0.927; in series [4], -0.985.
Turning to GCUGUAGUGUUACUAAUCCUUAUGACAGC, the “pull-down binding Z-score” value was -0.242 in series [1], -0.113 in series [2], -0.197 in series [3] and -0.349 in series [4].
In the case of “UGAUAAAUUCA [SHAPE_invivo_SARS-CoV-2_Motif_325]”, the “pull-down binding Z-score” value in series [1] was -0.375; in series [2] it was -0.376; in series [3] it was -0.712; in series [4] it was -1.19.
On to “AAAAAUCUUAGGGAAUUUGUGUUUAAGAAUAUUGAUGGUUAUUUUAAAAUAUAUUCUAAGCACACGCCUAUUAAUUUAGUGCGUGAUCUCCCUCAGGGUUUUU”, for which the “pull-down binding Z-score” value in series [1] is 0.151; in series [2], -0.855; in series [3], -0.959; in series [4], -0.421.
“CAAAUGUGCCUUUCAACUCUCAUGAAGUGUGAUCAUUGUGGUGAAACUUCAUGGCAGACGGGCGAUUUUG”: the “pull-down binding Z-score” value in series [1] was -0.412; in series [2] it was -0.685; in series [3] it was -0.576; in series [4], 0.555.
As to GCAGACUUCAAAGUUUGC, the “pull-down binding Z-score” value was -0.0803 in series [1], 0.23 in series [2], -0.139 in series [3] and -1.04 in series [4].
Turning to “GGUCCAGCAACAGCUCAAAUGGCC [IAV_invivo_PB1_2_Motif_29+IAV_invivo_PB1_2_Motif_29]”, the “pull-down binding Z-score” value was -0.356 in series [1], -0.414 in series [2], -0.26 in series [3] and 0.392 in series [4].
For the sequence CAGGCAAGAAGGAUACUUACCUG [U1snRNP5ss-25], the “pull-down binding Z-score” value in series [1] is -0.366; in series [2], -0.164; in series [3], -0.353; in series [4] it was -0.695.
“GCACUACAGCUAAGGCUAUGGAGC [IAV_invivo_M1_M2_7_Motif_13+IAV_invivo_M1_M2_7_Motif_13]”: the “pull-down binding Z-score” value was -0.311 in series [1], -0.491 in series [2], -0.314 in series [3] and 0.116 in series [4].
Consider “GUGCUUGGGACAUUUGAUACCGCAC [IAV_invivo_PB2_1_Motif_30+IAV_invivo_PB2_1_Motif_30]”, for which the “pull-down binding Z-score” value in series [1] is -0.147; in series [2] it was -0.258; in series [3] it was -0.171; in series [4], 0.571.
Regarding “CCUCGUACAAAAUUUUCAAGAUCGAAAAGGGG [IAV_invivo_NA_6_Motif_10+IAV_invivo_NA_6_Motif_10]”, the “pull-down binding Z-score” value in series [1] is 0.159; in series [2], -0.278; in series [3], -0.362; in series [4] it was -0.605.
Take “CAACAAAAGUUG [SHAPE_invivo_SARS-CoV-2_Motif_413]”: the “pull-down binding Z-score” value in series [1] is -0.787; in series [2] it was -0.893; in series [3], -1.44; in series [4], -1.52.
As for “CUGUGGGUUUUACACUUAAAAACACAG [DMSMaPseq_invitro_SARS-CoV-2_Motif_239]”, the “pull-down binding Z-score” value was -0.131 in series [1], -0.233 in series [2], -0.32 in series [3] and -0.754 in series [4].
The like results for “UCUCGUUCACUGGGGA [IAV_invivo_PA_3_Motif_5+IAV_invivo_PA_3_Motif_5]” were, in that order, 0.0349, 0.366, 0.198 and -0.216.
For “CCCAUCCGUGGGUGGG [IAV_invivo_NA_6_Motif_4+IAV_invivo_NA_6_Motif_4]”, in that order: -0.239, -0.525, -0.897 and -0.95.
CACAUGAAGGUAAAACAUUUUAUGUUUUACCUAAUGAUG: the “pull-down binding Z-score” value in series [1] was -0.743; in series [2] it was -0.659; in series [3], -0.73; in series [4] it was -0.256.
“AACGGGGCGGGCCGGGGGCGGGGUAA [G4_2A2_VEGF-Pu22]”: the “pull-down binding Z-score” value in series [1] worked out at 10.4; in series [2], 8.27; in series [3], 6.62; in series [4] it was 4.88.
For “CAGGACACGAGUAACUCGUCUAUCUUCUG [SARS-CoV-2-Conserved-Structured-36_Interval-120-237_Motif_2]”, in that order: -0.0048, 0.225, 0.324 and 0.379.
